Legend:
[1] = target: T1, membrane bound human OX40L on CHO-KI cells (human, UniProt P23510 1-183); assay: cell-based or functional assay
T1 sequence (looked up): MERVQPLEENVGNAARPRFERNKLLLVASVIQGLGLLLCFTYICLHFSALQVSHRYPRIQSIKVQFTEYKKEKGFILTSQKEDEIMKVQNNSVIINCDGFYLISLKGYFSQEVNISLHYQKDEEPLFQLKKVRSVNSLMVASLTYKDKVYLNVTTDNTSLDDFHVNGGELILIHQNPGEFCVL

[2] = target: T2, membrane bound cyno OX40L on CHO-KI cells (cynomolgus monkey, UniProt G7NVH7 1-183); assay: cell-based or functional assay
T2 sequence: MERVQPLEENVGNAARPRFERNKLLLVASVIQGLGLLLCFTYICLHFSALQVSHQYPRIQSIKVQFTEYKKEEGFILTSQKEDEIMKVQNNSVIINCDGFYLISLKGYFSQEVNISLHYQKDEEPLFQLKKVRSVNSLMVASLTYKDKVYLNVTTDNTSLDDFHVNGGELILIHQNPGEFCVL

mouse serum albumin = target: T3, mouse serum albumin (mouse, UniProt P07724 25-608); assay: Gyrolab in-solution affinity, 2 h incubation; 95% CI 101-117 nM
T3 construct: also called mouse SA

human serum albumin = target: T4, human serum albumin (human, UniProt P02768 25-609); assay: Gyrolab in-solution affinity, 2 h incubation; 95% CI 5.5-7.6 nM
T4 construct: also called HSA; HAS
T4 sequence (P02768 25-609 limits assumed): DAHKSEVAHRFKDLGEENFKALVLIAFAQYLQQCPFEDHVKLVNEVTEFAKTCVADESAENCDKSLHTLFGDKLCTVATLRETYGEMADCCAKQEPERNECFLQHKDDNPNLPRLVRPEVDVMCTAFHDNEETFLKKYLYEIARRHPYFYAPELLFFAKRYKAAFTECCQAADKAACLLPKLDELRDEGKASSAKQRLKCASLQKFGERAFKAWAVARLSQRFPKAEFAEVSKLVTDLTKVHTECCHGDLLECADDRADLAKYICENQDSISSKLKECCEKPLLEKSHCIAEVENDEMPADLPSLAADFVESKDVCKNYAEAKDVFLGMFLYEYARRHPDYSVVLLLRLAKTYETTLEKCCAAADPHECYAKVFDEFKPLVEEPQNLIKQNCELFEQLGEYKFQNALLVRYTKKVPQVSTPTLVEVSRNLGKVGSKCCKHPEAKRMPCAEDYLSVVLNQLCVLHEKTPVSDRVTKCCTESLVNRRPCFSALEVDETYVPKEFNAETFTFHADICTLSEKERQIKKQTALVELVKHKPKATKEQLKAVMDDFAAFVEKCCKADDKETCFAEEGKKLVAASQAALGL
Experimental: (§1) Under receptor-controlled measurements a serial dilution of OX40L (ranging from 1.3 μM-0.031 μM), IL-13 (ranging from 0.1 μM-0.25 fM), or serum albumin (ranging from 100 μM-3.2 μM) and a fixed amount of ISVD construct F027100187 (5 nM in case of OX40L, […] in case of IL-13 and 30 nM in case of HSA and cyno SA) were mixed to allow interaction and incubated for either 24 or 48 hours (in case of OX40L and IL-13) or 2 hours (in case of serum albumin) to reach equilibrium.
(§2) Biotinylated human OX40L/IL-13/serum albumin was captured in the microstructures of a Gyrolab Bioaffy 1000 CD, which contains columns of beads and was used as a molecular probe to capture free F027100187 from the equilibrated solution. The mixture of OX40L/IL13/serum albumin and F027100187 (containing free OX40UIL-13/serum albumin, free F027100187 and OX40L/IL13/serum albumin—F027100187 complexes) was allowed to flow through the beads, and a small percentage of free F027100187 was captured, which is proportional to the free ISVD construct concentration. A fluorescently labeled anti-ISVD antibody, ABH0086-Alexa647, was then injected to label any captured F027100187 and after rinsing away excess of fluorescent probe, the change in fluorescence was determined. Fitting of the dilution series was done using Gyrolab Analysis software, where KD- and receptor-controlled curves were analyzed to determine the KD value.

cyno serum albumin [3] = target: T5, cyno serum albumin (cynomolgus monkey); assay: Gyrolab in-solution affinity, 2 h incubation; 95% CI 8.3-10.9 nM
T5 construct: also called cyno SA; cynomolgus monkey serum albumin
T5 sequence (A2V9Z4 25-608): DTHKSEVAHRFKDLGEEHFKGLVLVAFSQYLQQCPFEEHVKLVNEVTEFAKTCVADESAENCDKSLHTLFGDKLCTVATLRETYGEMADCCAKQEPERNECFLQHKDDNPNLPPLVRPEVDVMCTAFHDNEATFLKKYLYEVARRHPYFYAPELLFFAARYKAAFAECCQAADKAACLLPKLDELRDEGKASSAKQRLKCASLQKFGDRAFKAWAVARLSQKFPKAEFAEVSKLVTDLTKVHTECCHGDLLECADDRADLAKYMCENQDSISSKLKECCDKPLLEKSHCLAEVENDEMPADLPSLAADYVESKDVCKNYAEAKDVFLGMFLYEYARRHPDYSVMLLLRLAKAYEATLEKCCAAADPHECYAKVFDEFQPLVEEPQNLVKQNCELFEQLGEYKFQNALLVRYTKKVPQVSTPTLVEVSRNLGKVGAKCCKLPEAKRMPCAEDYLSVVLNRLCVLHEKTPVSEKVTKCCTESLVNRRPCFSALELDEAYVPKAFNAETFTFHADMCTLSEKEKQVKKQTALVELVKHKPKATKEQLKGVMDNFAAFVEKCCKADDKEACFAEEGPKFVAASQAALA
Experimental: as §1, §2

cyno serum albumin [4] = target: T5, cyno serum albumin; assay: Gyrolab in-solution affinity, 2 h incubation; 95% CI 9.0-12.3 nM
Experimental: as §1, §2

human OX40L [5] = target: T6, human OX40L (human, UniProt P23510 51-183); assay: Gyrolab in-solution affinity, 24 h incubation; 95% CI 108-141 pM
T6 construct: Protein in solution or immobilised (SPR, Gyrolab); construct not described; also called huOX40L; hOX40L
T6 sequence (looked up): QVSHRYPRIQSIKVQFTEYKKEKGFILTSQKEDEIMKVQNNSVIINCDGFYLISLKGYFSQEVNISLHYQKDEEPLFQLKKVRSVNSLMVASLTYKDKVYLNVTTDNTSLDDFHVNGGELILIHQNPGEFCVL
Experimental: as §1, §2

cyno IL-13 = target: T7, cyno IL-13 (cynomolgus monkey, UniProt Q0PW92 21-132); assay: Gyrolab in-solution affinity, 48 h incubation; 95% CI 5.8-7.5 pM
T7 construct: also called cynomolgus monkey IL-13
T7 sequence (Q0PW92 entry or part of it): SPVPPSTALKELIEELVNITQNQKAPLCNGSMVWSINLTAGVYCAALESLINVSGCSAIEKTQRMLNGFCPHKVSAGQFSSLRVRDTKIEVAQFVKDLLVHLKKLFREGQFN
Experimental: as §1, §2

human IL-13 [6] = target: T8, human IL-13 (human, UniProt P35225 35-146, limits assumed); assay: Gyrolab in-solution affinity, 48 h incubation; 95% CI 6.4-9.1 pM
T8 construct: Recombinant soluble protein; also called hIL-13; soluble hIL-13
T8 sequence (P35225 35-146 limits assumed): as the sequence (Q0PW92 entry or part of it) above, with S1G, K10R, V42M, N67S, R83H, V100L counted along it
Experimental: as §1, §2

rhesus IL-13 = target: T9, rhesus IL-13 (rhesus monkey, UniProt Q864V6 19-132, limits assumed); assay: Gyrolab in-solution affinity, 48 h incubation; 95% CI 9.0-49.5 pM
T9 construct: also called rhesus monkey IL-13
T9 sequence (Q864V6 19-132 limits assumed): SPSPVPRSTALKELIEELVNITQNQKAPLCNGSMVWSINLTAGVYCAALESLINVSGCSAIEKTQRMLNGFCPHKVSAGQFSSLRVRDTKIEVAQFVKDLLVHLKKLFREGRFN
Experimental: as §1, §2

human OX40L [7] = target: T6, human OX40L; assay: Gyrolab in-solution affinity, 24 h incubation; 95% CI 64.7-91.0 pM
Experimental: as §1, §2

human IL-13 [8] = target: T8, human IL-13; assay: flow cytometry on CHO-KI cells expressing human OX40L loaded with 100 nM F027100187, dilution series of soluble human IL-13 in the presence of 30 uM HSA (bridging / simultaneous binding; x axis printed as 'Concentration human IL-13-Fc (M)', text says biotinylated IL-13)
Experimental: Using flow cytometry, it was determined whether ISVD construct F0271000187 can bind simultaneously to recombinant soluble hIL-13 and cell membrane bound hOX40L. […] Subsequently the mixture was incubated with a dilution series of biotinylated IL-13 starting from 500 nM down to […], and incubated for 30 min at 4° C., in the presence of 30 μM HSA. Cells were washed 3 times and subsequently incubated with PE-labelled […] for 30 min at 4° C., washed again. Samples were washed and resuspended in FACS Buffer (D-PBS with 10% FBS and 0.05% sodium azide supplemented with 5 nM TOPRO3). Cell suspensions were then analyzed on a iQuescreener.

B1: ISVD construct F027100187 (other)
chain: DVQLVESGGGVVQPGGSLRLSCAASRSIGRYDRMGWYRHRPGEPRELVATITGGSSINYGDSVKGRFTISIDNSKNTVYLQMNSLRPEDTALYYCNFNKYQISRDTWGQGTLVTVSSGGGGSGGGSEVQLVESGGGVVQPGGSLRLSCAASGRTFSSYRMGWFRQAPGKEREFVAALSGDGYSTYTANSVKGRFTISRDNSKNTVYLQMNSLRPEDTALYYCAAKLQYVSGWSYDYPYWGQGTLVTVSSGGGGSGGGSEVQLVESGGGVVQPGGSLRLSCAASGFTFRSFGMSWVRQAPGKGPEWVSSISGSGSDTLYADSVKGRFTISRDNSKNTLYLQMNSLRPEDTALYYCTIGGSLSRSSQGTLVTVSSGGGGSGGGSEVQLVESGGGVVQPGGSLRLSCAASGFTFNNYAMKWVRQAPGKGLEWVSSITTGGGSTDYADSVKGRFTISRDNSKNTLYLQMNSLRPEDTALYYCANVPFGYYSEHFSGLSFDYRGQGTLVTVSSA
notes: Tetravalent, trispecific single-chain construct of four VHH (ISVD) domains: one against OX40L, two against IL-13, one against serum albumin; also called F0271000187; F27100187
Question: Which “PBMC activity assay IC50” value [1] does the source give for B1 here?
Answer: 1.9 nM

Question: And the “PBMC activity assay IC50” value [2]?
Answer: 14 nM

Question: And the Kd (mouse serum albumin)?
Answer: 109 nM

Question: What about the Kd (human serum albumin) of the same binder?
Answer: 6.6 nM

Question: What about the Kd (cyno serum albumin [3]) of the same binder?
Answer: 9.6 nM

Question: And the Kd (cyno serum albumin [4])?
Answer: 10.6 nM

Question: And the Kd (human OX40L [5])?
Answer: 0.125 nM

Question: And the Kd (cyno IL-13)?
Answer: 0.0067 nM

Question: What about the Kd (human IL-13 [6]) of the same binder?
Answer: 0.0078 nM

Question: What about the Kd (rhesus IL-13) of the same binder?
Answer: 0.0293 nM

Question: And the Kd (human OX40L [7])?
Answer: 0.0778 nM

Question: And the “EC50 (read off the curve)” value (human IL-13 [8])?
Answer: ~20 nM

Reference: US20220153854A1 (Ablynx, published 2022)
